Among the data in CN109021108A (UNIV NANJING MEDICAL, dated 2018) are Kd values, retold here.

The target of experiment [1] is T1, GPC3-his蛋白 (UniProt P51654 25-559).
T1 construct: also called GPC3蛋白; not shown: his tag
Put plainly: ELISA titration, GPC3-his coated at 5 μg/ml, 32A9 IgG from 20 μg/ml in 1:2 dilutions, fitted affinity curve. On the technique in general: In an ELISA, binding on a coated surface is turned into a signal by an enzyme label.

Experiment [2] concerns the target T2, GPC3 on A431-GPC3细胞 (A431 cells stably transfected with GPC3 cDNA) (UniProt P51654 25-554).
T2 construct: whole, on cells; also called GPC3阳性细胞; GPC3阳性靶细胞
Put plainly: flow cytometry titration on A431-GPC3 cells, 32A9 IgG from 60 μg/ml in 1:2 dilutions, fitted affinity curve. (In flow cytometry, cells or beads pass a laser one at a time.)

T1 sequence (P51654 25-559 limits assumed): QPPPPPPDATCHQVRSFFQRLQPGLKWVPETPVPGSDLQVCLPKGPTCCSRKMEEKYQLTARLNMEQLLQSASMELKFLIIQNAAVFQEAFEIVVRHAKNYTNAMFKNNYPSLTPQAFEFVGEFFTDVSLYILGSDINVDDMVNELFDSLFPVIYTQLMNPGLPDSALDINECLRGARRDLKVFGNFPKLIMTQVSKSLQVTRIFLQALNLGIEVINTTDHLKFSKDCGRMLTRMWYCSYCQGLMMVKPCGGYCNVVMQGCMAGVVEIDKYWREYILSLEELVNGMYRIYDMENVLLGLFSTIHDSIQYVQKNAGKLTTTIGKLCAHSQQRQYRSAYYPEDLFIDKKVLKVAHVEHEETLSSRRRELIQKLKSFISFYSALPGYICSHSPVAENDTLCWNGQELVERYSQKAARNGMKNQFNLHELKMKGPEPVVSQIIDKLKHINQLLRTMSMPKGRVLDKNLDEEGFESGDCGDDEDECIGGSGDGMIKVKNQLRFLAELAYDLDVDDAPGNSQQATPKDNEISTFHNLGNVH
T2 sequence (P51654 25-554 limits assumed, form in doubt): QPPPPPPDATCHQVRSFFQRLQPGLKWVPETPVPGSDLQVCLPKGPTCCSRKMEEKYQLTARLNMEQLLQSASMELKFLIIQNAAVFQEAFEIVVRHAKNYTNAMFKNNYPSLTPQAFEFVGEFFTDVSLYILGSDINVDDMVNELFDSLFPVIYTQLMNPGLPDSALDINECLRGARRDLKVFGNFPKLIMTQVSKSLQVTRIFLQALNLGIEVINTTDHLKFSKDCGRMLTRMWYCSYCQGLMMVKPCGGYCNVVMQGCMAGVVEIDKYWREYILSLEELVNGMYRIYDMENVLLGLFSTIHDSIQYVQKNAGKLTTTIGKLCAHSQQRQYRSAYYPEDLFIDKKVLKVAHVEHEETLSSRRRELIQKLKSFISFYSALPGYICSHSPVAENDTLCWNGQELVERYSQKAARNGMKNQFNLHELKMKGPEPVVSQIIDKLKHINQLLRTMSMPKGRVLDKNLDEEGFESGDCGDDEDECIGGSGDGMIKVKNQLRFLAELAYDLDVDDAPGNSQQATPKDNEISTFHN

B1: 32A9IgG重组蛋白 (抗体32A9, anti-GPC3 fully human antibody, IgG form) (antibody, V domains shown)
VH: EVQLLESGGGLVQPGGSLRLSCAASGFTFSSYAMSWVRQAPGKGLEWVSGIAYNGASTAYADSVKGRFTISRDNSKNTLYLQMNSLRAEDTAVYYCAKSAGSFDYWGQGTLVTVSS
VL: DIQMTQSPSSLSASVGDRVTITCRASQSISSYLNWYQQKPGKAPKLLIYSASSLQSGVPSRFSGSGSGTDFTLTISSLQPEDFATYYCQQDYAYPYTFGQGTKVEIK
notes: also called 32A9IgG蛋白
As a reminder, the Kd is the free concentration of one partner at which half of the binding sites on the other are occupied at equilibrium, for simple one-to-one binding. For B1, the equilibrium dissociation constant (Kd) in experiment [1] was 1.93 nM; in experiment [2], 6.25 nM.
